Target: ANTXR1, Q9H6X2-2
Sequence (Q9H6X2 other isoform, or with tags, fused parts or gaps): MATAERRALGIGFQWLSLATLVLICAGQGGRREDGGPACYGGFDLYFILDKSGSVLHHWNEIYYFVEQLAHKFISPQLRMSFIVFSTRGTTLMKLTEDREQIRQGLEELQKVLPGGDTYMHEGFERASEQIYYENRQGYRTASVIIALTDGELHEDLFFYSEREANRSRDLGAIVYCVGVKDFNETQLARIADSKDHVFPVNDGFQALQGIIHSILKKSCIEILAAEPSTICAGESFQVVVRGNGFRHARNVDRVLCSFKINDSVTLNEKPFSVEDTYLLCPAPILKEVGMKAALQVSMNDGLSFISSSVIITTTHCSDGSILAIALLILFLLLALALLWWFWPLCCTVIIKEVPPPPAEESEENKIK

Protective antigen (Bacillus anthracis) (from UniProt P13423) D712N
effect of a mutation on the interaction: decreasing interaction

Source: IntAct's records for PubMed 14507921
